One assay addresses T1, O11-AA.
T1 chain: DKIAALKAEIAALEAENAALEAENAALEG
Put plainly: two-hybrid library CCmax.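 Further: natural log of median RNA to DNA barcode read ratio; higher means stronger binding.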 To be noted: mean of both orientations.

The next assay concerns the target T2, O14-AA.
T2 chain: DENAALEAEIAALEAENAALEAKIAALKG
Put plainly: two-hybrid library CCmax.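 Further: natural log of median RNA to DNA barcode read ratio; higher means stronger binding.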 To be noted: mean of both orientations.

The next assay has as its target T3, 4H510-AA.
T3 chain: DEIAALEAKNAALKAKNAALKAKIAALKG
Briefly: two-hybrid library CCmax.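 Further: natural log of median RNA to DNA barcode read ratio; higher means stronger binding.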 The settings on record: mean of both orientations.

In a further assay the target is T4, 4H_APH.
T4 chain: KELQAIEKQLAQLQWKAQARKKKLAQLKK
Briefly: two-hybrid library CCmax.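 Further: natural log of median RNA to DNA barcode read ratio; higher means stronger binding.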

Another assay addresses GCN2_T. Put plainly: two-hybrid library CCmax.
Another assay concerns the target 4H_GCN4. Put plainly: two-hybrid library CCmax.
Another assay addresses T5, 4H_BCR.
T5 chain: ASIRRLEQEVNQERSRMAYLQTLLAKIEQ
Briefly: two-hybrid library CCmax. To be noted: mean of both orientations.

Another assay addresses T6, O13-AA.
T6 chain: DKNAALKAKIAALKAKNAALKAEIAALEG
Briefly: two-hybrid library CCmax. To be noted: mean of both orientations.

The target of another assay is T7, 4H908-bH.
T7 chain: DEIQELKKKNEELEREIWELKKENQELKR
Put plainly: two-hybrid library CCNG1.

Another assay concerns the target T8, 4H967-bH.
T8 chain: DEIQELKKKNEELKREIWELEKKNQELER
Put plainly: two-hybrid library CCNG1.

The next assay concerns the target T9, 4H953-bH.
T9 chain: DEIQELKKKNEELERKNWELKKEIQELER
Put plainly: two-hybrid library CCNG1.

The target in a further assay is T10, 4H918-bH.
T10 chain: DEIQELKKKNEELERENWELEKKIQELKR
Briefly: two-hybrid library CCNG1.

The target in a further assay is T11, 4H675-AA.
T11 chain: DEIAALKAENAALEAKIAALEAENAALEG
Put plainly: two-hybrid library CCmax. The settings on record: mean of both orientations.

Another assay addresses T12, 4H428-AA.
T12 chain: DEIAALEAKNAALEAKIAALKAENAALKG
Put plainly: two-hybrid library CCmax. To be noted: mean of both orientations.

A further assay has as its target T13, 4H3920-AA.
T13 chain: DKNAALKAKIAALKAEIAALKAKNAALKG
Put plainly: two-hybrid library CCmax. To be noted: mean of both orientations.

Another assay concerns the target T14, 4H391-AA.
T14 chain: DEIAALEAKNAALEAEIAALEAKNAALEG
Put plainly: two-hybrid library CCmax. The settings on record: mean of both orientations.

The target in the next assay is T15, 4H478-AA.
T15 chain: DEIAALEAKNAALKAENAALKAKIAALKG
Briefly: two-hybrid library CCmax. The settings on record: mean of both orientations.

The target of a further assay is T16, 4H656-AA.
T16 chain: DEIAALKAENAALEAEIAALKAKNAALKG
Put plainly: two-hybrid library CCmax. The settings on record: mean of both orientations.

A further assay concerns the target T17, 4H3709-AA.
T17 chain: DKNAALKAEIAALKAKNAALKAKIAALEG
Put plainly: two-hybrid library CCmax.

A further assay concerns the target T18, 4H971-AA.
T18 chain: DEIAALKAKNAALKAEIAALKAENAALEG
Put plainly: two-hybrid library CCmax. The settings on record: mean of both orientations.

A further assay has as its target T19, 4H497-AA.
T19 chain: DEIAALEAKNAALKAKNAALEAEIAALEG
Briefly: two-hybrid library CCmax. To be noted: mean of both orientations.

Another assay deals with T20, 4H3939-AA.
T20 chain: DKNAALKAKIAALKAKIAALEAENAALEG
Briefly: two-hybrid library CCmax. To be noted: mean of both orientations.

A further assay deals with T21, 4H968-bN.
T21 chain: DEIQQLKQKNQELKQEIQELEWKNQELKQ
Put plainly: two-hybrid library CCNG1.

A further assay concerns the target T22, 4H3410-AA.
T22 chain: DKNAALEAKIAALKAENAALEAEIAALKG
Put plainly: two-hybrid library CCmax. The settings on record: mean of both orientations.

For another assay, the target named is T23, 4H797-AA.
T23 chain: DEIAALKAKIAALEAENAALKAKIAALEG
Put plainly: two-hybrid library CCmax. The settings on record: mean of both orientations.

The next assay has as its target T24, 4H629-AA.
T24 chain: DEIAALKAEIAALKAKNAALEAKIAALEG
Put plainly: two-hybrid library CCmax. To be noted: mean of both orientations.

Another assay deals with T25, 4H891-AA.
T25 chain: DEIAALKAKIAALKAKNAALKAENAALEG
Briefly: two-hybrid library CCmax. To be noted: mean of both orientations.

A further assay addresses T26, 4H3165-AA.
T26 chain: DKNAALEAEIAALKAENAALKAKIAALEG
Briefly: two-hybrid library CCmax. To be noted: mean of both orientations.

The next assay addresses T27, 4H3130-AA.
T27 chain: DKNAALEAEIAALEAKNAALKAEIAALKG
Briefly: two-hybrid library CCmax. To be noted: mean of both orientations.

A further assay deals with T28, 4H570-AA.
T28 chain: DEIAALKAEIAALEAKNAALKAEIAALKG
Put plainly: two-hybrid library CCmax. The settings on record: mean of both orientations.

For the next assay, the target named is T29, 4H3381-AA.
T29 chain: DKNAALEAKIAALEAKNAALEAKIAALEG
Briefly: two-hybrid library CCmax. The settings on record: mean of both orientations.

Another assay addresses T30, 4H930-AA.
T30 chain: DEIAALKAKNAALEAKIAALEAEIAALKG
Put plainly: two-hybrid library CCmax. To be noted: mean of both orientations.

Another assay deals with T31, 4H909-AA.
T31 chain: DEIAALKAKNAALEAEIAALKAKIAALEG
Put plainly: two-hybrid library CCmax. To be noted: mean of both orientations.

Another assay deals with T32, 4H3865-AA.
T32 chain: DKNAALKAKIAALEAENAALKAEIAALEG
Put plainly: two-hybrid library CCmax. The settings on record: mean of both orientations.

Another assay concerns the target T33, 4H310-AA.
T33 chain: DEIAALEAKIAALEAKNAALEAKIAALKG
Briefly: two-hybrid library CCmax.

For another assay, the target named is T34, 4H3120-AA.
T34 chain: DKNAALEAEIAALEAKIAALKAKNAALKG
Put plainly: two-hybrid library CCmax. The settings on record: mean of both orientations.

A further assay addresses T35, 4H94-AA.
T35 chain: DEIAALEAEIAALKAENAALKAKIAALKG
Put plainly: two-hybrid library CCmax. To be noted: mean of both orientations.

The next assay concerns the target T36, 4H3590-AA.
T36 chain: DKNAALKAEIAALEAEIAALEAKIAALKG
Briefly: two-hybrid library CCmax. The settings on record: mean of both orientations.

In another assay the target is T37, 4H710-AA.
T37 chain: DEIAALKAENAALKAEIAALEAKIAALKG
Put plainly: two-hybrid library CCmax. The settings on record: mean of both orientations.

A further assay concerns the target T38, 4H536-AA.
T38 chain: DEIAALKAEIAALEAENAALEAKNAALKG
Put plainly: two-hybrid library CCmax. To be noted: mean of both orientations.

The target of the next assay is T39, 4H3395-AA.
T39 chain: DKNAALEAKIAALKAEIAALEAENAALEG
Put plainly: two-hybrid library CCmax. To be noted: mean of both orientations.

The target in a further assay is T40, 4H485-AA.
T40 chain: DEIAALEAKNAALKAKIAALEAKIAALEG
Put plainly: two-hybrid library CCmax. To be noted: mean of both orientations.

For the next assay, the target named is T41, 4H745-AA.
T41 chain: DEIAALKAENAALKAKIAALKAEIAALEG
Put plainly: two-hybrid library CCmax. The settings on record: mean of both orientations.

The target in a further assay is T42, 4H3697-AA.
T42 chain: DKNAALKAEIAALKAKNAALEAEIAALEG
Put plainly: two-hybrid library CCmax. To be noted: mean of both orientations.

The next assay has as its target T43, 4H458-AA.
T43 chain: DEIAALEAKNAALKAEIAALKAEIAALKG
Put plainly: two-hybrid library CCmax. To be noted: mean of both orientations.

The target in another assay is T44, 4H850-AA.
T44 chain: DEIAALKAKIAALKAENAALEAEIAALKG
Briefly: two-hybrid library CCmax. To be noted: mean of both orientations.

The target of a further assay is T45, 4H3753-AA.
T45 chain: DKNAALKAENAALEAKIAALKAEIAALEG
Put plainly: two-hybrid library CCmax. The settings on record: mean of both orientations.

The target of the next assay is T46, 4H953-bA.
T46 chain: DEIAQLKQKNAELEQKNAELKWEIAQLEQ
Briefly: two-hybrid library CCNG1.

For another assay, the target named is T47, 4H968-bA.
T47 chain: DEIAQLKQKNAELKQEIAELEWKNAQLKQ
Put plainly: two-hybrid library CCNG1.

The target in another assay is T48, 4H918-bA.
T48 chain: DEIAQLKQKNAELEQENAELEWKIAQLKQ
Put plainly: two-hybrid library CCNG1.

The next assay addresses T49, 4H967-bA.
T49 chain: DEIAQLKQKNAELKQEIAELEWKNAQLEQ
Put plainly: two-hybrid library CCNG1.

4H_GCN4, sequence (chain, as listed by the source): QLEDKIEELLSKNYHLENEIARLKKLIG

Regarding DEIAALEAKNAALKAEIAALEAENAALEG [4H451-AA], the interaction score with O11-AA is -1.9; in the assay with O14-AA, 0.209; in the assay with 4H510-AA, -1.68; with 4H_APH, -1.88; with GCN2_T, -0.954; with 4H_GCN4, -1.53. In addition, the interaction score in the assay with 4H_BCR was -1.98; with O13-AA, -1.74.
On to DEIQELKKKNEELEREIWELKKENQELKR [4H908-bH], for which the interaction score in the assay with 4H908-bH was 0.057; with 4H967-bH, -0.426; in the assay with 4H953-bH it was -0.842; with 4H918-bH, -2.03.
For DKNAALKAEIAALKAKNAALKAKIAALEG [4H3709-AA], the interaction score was 1.6 with 4H675-AA; -2.58 in the assay with 4H428-AA; -1.81 in the assay with 4H3920-AA; -1.04 with 4H391-AA; -0.647 with 4H478-AA; 0.489 with 4H656-AA. For the same molecule, the interaction score is 0.066 with 4H3709-AA, -1.69 with 4H971-AA, -1.73 with 4H497-AA and -2.03 with 4H3939-AA.
In the assay with 4H968-bN, DEIQQLKQKNQELKQEIQELEWKNQELKQ [4H968-bN] displayed an interaction score of 0.264.
Consider DEIAALEAKIAALEAKNAALEAKIAALKG [4H310-AA], for which the interaction score with 4H3410-AA is -0.251; in the assay with 4H797-AA, -0.563; with 4H629-AA it was -0.767; in the assay with 4H891-AA it was -0.168; with 4H3165-AA it was -1.5; in the assay with 4H3130-AA, -0.0638. Further, the interaction score with 4H570-AA is 1.97; with 4H3381-AA, 0.757; with 4H930-AA it was -1.11; in the assay with 4H909-AA, -1.39; in the assay with 4H3865-AA, 1.13; in the assay with 4H310-AA, 1.89. Also, the interaction score with 4H3120-AA was -1.43; with 4H94-AA it was -0.904; with 4H3590-AA it was -0.923; in the assay with 4H710-AA, -0.577; with 4H536-AA it was -0.922; with 4H3395-AA it was -1.03. Moreover, the interaction score with 4H485-AA was -0.778; with 4H745-AA, -0.998; with 4H3697-AA it was 0.375; in the assay with 4H458-AA it was 1.7; with 4H850-AA it was 1.33; with 4H3753-AA, -1.8.
As to DEIAQLKQKNAELEQENAELEWKIAQLKQ [4H918-bA], the interaction score with 4H953-bA was 1.53; with 4H968-bA, -0.293; in the assay with 4H918-bA, 0.453; with 4H967-bA, -0.684.
